Laboratory results as given in PMC5939945 (ACS combinatorial science, 2017).

Experiments:
eIF4E = eIF4E (Homo sapiens, UniProt P06730); experiment: PPI cat-ELCCA chemiluminescent competition assay of eIF4E–4E-BP1; format: binding
[1] = target: biotinylated eIF4E (eukaryotic translation initiation factor 4E), N-terminal HaloTag fusion (UniProt P06730); experiment: PPI cat-ELCCA
[2] = target: biotinylated eIF4E (eukaryotic translation initiation factor 4E), N-terminal HaloTag fusion (UniProt P06730); experiment: ELISA

Chain of unlabeled 4E-BP1 protein (Q13541 whole entry): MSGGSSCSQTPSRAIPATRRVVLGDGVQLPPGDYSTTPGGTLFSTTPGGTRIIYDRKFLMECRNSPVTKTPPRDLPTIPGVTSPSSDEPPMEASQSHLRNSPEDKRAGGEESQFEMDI
Chain of biotinylated eIF4E (eukaryotic translation initiation factor 4E), N-terminal HaloTag fusion (P06730 whole entry, the tested form may be a part): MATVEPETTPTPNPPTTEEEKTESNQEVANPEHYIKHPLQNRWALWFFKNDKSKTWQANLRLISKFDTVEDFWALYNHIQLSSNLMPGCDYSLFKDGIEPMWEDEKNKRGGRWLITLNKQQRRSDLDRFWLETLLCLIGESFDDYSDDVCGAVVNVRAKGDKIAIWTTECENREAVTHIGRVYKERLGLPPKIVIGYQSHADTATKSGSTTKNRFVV
Chain of eIF4E (P06730 2-217): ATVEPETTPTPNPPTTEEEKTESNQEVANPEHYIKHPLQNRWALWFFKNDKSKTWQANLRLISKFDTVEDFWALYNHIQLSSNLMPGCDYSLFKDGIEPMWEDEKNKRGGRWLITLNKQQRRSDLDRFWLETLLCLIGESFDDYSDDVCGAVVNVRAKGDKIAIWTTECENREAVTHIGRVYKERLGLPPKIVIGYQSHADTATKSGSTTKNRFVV
Chain of eIF4E (Q13541 2-118 partner): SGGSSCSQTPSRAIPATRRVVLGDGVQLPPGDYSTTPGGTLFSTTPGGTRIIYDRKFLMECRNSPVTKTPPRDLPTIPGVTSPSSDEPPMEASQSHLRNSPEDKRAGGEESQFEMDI
Chain of eIF4E (Q04637 whole entry partner, the tested form may be a part): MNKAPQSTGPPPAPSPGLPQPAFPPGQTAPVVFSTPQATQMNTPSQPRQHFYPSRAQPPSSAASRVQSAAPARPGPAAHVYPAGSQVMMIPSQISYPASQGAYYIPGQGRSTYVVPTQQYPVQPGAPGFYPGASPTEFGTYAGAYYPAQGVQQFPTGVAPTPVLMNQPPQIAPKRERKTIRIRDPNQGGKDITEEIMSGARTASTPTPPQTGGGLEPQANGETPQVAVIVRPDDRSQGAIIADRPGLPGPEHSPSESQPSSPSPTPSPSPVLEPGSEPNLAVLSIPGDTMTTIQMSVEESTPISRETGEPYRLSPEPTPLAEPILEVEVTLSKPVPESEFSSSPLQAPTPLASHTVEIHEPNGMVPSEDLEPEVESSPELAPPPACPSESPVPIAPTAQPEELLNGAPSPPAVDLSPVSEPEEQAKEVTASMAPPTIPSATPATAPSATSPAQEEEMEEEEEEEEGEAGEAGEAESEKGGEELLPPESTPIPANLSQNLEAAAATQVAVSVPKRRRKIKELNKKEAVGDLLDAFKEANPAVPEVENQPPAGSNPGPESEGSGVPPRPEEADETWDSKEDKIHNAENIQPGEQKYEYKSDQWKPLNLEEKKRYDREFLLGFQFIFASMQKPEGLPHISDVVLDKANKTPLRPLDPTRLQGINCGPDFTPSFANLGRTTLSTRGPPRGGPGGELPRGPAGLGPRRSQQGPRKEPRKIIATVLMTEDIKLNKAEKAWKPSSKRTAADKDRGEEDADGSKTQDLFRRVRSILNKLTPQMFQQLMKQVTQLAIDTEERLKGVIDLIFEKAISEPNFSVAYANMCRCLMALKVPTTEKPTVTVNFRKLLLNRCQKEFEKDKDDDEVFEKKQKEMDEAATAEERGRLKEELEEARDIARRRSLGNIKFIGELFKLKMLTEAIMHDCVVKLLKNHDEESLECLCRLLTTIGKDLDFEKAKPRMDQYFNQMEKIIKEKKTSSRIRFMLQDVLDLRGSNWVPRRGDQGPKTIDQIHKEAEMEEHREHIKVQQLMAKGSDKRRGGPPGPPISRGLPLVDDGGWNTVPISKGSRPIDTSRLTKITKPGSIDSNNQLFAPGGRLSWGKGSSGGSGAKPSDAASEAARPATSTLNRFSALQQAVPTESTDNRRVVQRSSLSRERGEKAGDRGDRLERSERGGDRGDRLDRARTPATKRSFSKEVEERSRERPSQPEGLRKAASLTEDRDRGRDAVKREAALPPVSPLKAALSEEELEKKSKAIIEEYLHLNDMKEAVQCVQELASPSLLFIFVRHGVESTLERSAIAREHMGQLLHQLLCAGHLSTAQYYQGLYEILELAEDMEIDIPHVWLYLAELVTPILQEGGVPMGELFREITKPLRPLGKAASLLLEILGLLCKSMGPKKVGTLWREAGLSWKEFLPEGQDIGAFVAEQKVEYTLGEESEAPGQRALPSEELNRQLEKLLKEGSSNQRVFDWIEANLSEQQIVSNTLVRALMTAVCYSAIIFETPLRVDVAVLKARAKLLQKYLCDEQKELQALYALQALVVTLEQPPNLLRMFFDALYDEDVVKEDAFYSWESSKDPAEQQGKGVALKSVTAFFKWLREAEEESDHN

Row | Molecule | IC50 (eIF4E) | IC50 [1] | Kd [2]
1 | O=C(O)c1ccc(N2C(=O)/C(=C\c3ccc(-c4ccc([N+](=O)[O-])cc4)o3)C=C2c2ccccc2)cc1 [4E1RCat] | 1.8 ± 0.6 µM |  | 
2 | unlabeled 4E-BP1 protein (from UniProt Q13541 1-118) (natural protein; other documents disagree on this pair) |  | 0.011 µM | 0.019 µM
